Test results reported in the DeepSol protein solubility set.

Assay: soluble on expression in E. coli; label from the status in PepcDB or PDB records

Sequence	soluble on expression in E. coli
MRCQPFCRNLAGFPQNSPAQSTTMTYTHGSALPSTDDVTIDADVATEELTGTAAFDAGVGDMPSWEELVAQHADSVYRLAFRLSGNQHDAEDLTQETFMRVFRSLKGYQPGTFEGWLHRITTNLFLDMVRHRAKIRMEALPEDYERVPGTDMTPEQAYNVSNLDPALQKALDDLSPDFRVAVVLCDVVGMSYDEIADTLGVKMGTVRSRIHRGRSQLRAHLENQATSDEGAQLLLATGR	not soluble
MAHHHHHHMARDYDAGYKLLFAMPEMMRDLLREFIRSDWLRALDYSTLERVSGNYVADNMRQRASDMVWRVDAGDPWGHLYVLLEFQSTIDRYMAPRMAAYTALLHQELVRAGQVLPDRRVPAALSIVLYNGDTPWSACTNIRDVVVSLPNGLAACQLHQQHTLLDINRLSEAQLPDDNLAALLFRIERAADYDTVVSLMIECRMRLRHEPKLKLAFAKTFAALLCGQRGSVLTPDQVFQLMEVDMQVVGANLQRFTHKLREEARQEGEARMLQKLLAERFGSLHASVVQRIEIATPEELERWGIQLLRAEVIEDVFRA	soluble
MRVAIVGTGIAGNAAAWALSQRYPVTVYERELRAGGHSHTVTVDYDGTTIPVDIGFIVYNQLNYPDLTAMFAHLGVETVESCMSFSVSADAGRFEWKGGGSNWLETADGLFAQRRNLLSPSYLQMLRHILVFNEKSVEDFKTGALAGLTLGDYFESRKFAPRLLTDYLAPMGAAIWSAPASQILDFPAENFVAFFNNHRLLHYERPIWRTVKGGSARYVEKLTSAFKDDMRLGAAVTSIERSPKGVIVRDSLGGLGVFDHVVIGAHSDQALAMLSDASDIERDILGSIGYAPNMVYLHRDPRLMPKRKRAWASWNFLRWQREGSPVNDVAVTYWMNRLQGIDADKPLFVSLNPPFEPAPELTFGRYACDHPQYTAKAFAAQRRVGELQGHRNTWFCGAWTGYGFHEDGLRSGLAVAEHLGAPVPWRGPPSEFREAAELEHHHHHH	soluble
MNGYVYLVGAGPGDEGLITKKAIECLKRADIVLYDRLLNPFFLSYTKQTCELMYCGKMPKNHIMRQEMINAHLLQFAQEGKIVVRLKGGDPSIFGRVGEEAETLAAANIPYEIVPGITSSTAASSYAGIPLTHRNYSNSVTLLTGHAKGSLTDHGKYNSSHNSDTIAYYMGIKNLPTICKNLRQAGKKEDTPVAVIEWGTTGKQRVVTGTLSTIVSIVKNENISNPSMTIVGDVVSLRDQIAWKEHKPLHGKKVLFTSATNKTSVMKQKLQEAGAEIYQIPTFKKEEYTLTLEQIIEIFNVNRLVFCSAESVEILMQSCSKYKKDIRSLQAELQHMNVATQEKLMQYGLLSKEAKFSSDTTVYLGRNINRIAFIQEKIGAGSYMMTHKYTIDHRFDEVHSRMLSEFLWDSIVFEGRASIDTFLAEVKRLGFLDIVTLPFSYTDVPTLRYANKVGFHNIDHQLQETLMQKDMVRQ	not soluble
MKKIIGLVGTNSEQSTNRQLLQFMQHYFAQEADIELVEIVDFPMFNKPEDKVLPEIVKTVAEKIEAADGVIISTPEYDHAVPASLMNALSWLSYGIFPFVDKPVMITGASYGTLGSSRAQAHLRQILDAPELKARIMPSSEFLLAHSLQAFDENNALKDSEQIDKLAGLFADFCVFIEITEQLKHAHAQNKKEAENFSWETI	not soluble
MKMADAKQKRNEQLKRWIGSETDLEPPVVKRKKTKVKFDDGAVFLAACSSGDTEEVLRLLERGADINYANVDGLTALHQACIDDNVDMVKFLVENGANINQPDNEGWIPLHAAASCGYLDIAEYLISQGAHVGAVNSEGDTPLDIAEEEAMEELLQNEVNRQGVDIEAARKEEERIMLRDARQWLNSGHINDVRHAKSGGTALHVAAAKGYTEVLKLLIQARYDVNIKDYDGWTPLHAAAHWGKEEACRILVENLCDMEAVNKVGQTAFDVADEDILGYLEELQKKQNLLHSEKREKKS	soluble
GSHMYEYPVFSHVQAGMFSPELRTFTKGDAERWVSTTKKASDSAFWLEVEGNSMTTPTGSKTSFPDGMLILVDPEQAVEPGDFCIARLGGDEFTFKKLIRDSGQVFLQPLNPQYPMIPCNESCSVVGKVIASQ	soluble
SMSGMKSSKSKDVLSAAEVMQWSQSLEKLLANQTGQNVFGSFLKSEFSEENIEFWLACEDYKKTESDLLPCKAEEIYKAFVHSDAAKQINIDFRTRESTAKKIKAPTPTCFDEAQKVIYTLMEKDSYPRFLKSDIYLNLLNDLQA	soluble
GKPDGKIDYADAVFKGCSDPGYLLGLNNTFRYKNFDLNVYFYGQLDLLKSGSYKDYWIVGSGTMTGVNNLYRGYNMPTSAKEVWSHDNTSGKMPGYFQYMSNYGYGDYFLEKSWFIRCRNITLGYTLPVKSAKKLVSNVRIYADVNNLFTITPYDGLDVETDDSYWAYPNVRSFSIGLDITF	not soluble
MILRTSEETISTVQEKQQNISPLVRERGPQRVAAHITGTRGRSNTLSSPNSKNEKALGRKINSWESSRSGHSFLSNLHLRNGELVIHEKGFYYIYSQTYFRFQEEIKENTKNDKQMVQYIYKYTSYPAPILLMKSARNSCWSKDAEYGLYSIYQGGIFELKENDRIFVSVTNEHLIDMDHEASFFGAFLVG	soluble
MRSTELIVERGPSRNEAHSMVNESPSNQPQEQFSLEPKWKTAAAPSCESSSEEAAYPKGNEEEEHNEARPRALCRLTDVSTDHYAKNPDSEEEDAQDEAEGDGSHVGAIPAEAATTARPHDLHKAKKKRSNHAKETKAAETLEKPAAPRKKKPMYKVNIGNVERHPPVPEGVNTPRSVMLCKECGVNPSELARYDRKHFQGAGVSDEVAELRYQSYEKRRCARMAQLKPAYKESIKYDLEDPVSVPAAKRKAQAAEEAPARPAAAAQAAAPPPKLLDEEAQMQRQFEAQHQRLLEQERRKTVTSGYDSDGRRRSPPRAGHFYGASVRSVGSAKSPGRYSRNTSVGARPTVDQPYSAAKIYSASIVESRPLTQSEVIMIDEINEREAHRIDTQERAFVIQENKQLMHVERELIRERLACVRVQKNAEDREKMQQKMHKRNEARQNVVAKRRKKLEAERQARIQDSVAEKAARCHTTNPYASLMLRQMSGFSTCHTSSSFPSQGADVSASREQSSEAE	soluble
MKFKAVFISDTHLGTKDSKASLLLEFIKEIETKELYLVGDIIDGWSLKRKWIWLQPHSDVIQKILKAARKGVRVTYILGNHDEFIRPFLPLALGDHIRVVDEATYKAKNKKRYKIVHGDLYDSITMTKKWLAILGDNGYQFLLRLNDPINTLRQRLGFRRYWSFSQFIKDHVKQAVAYISDFEKILVAHAREEKFDGIICGHIHKAEIRDIEGITYMNCGDWVESCTALVETLEGEFKIIRWLDER	not soluble
MQTKLSTWTPLNHQLSNAHVFEERRNLLGKWFEKWTDSQRKQVLQDFFSRCSAGQLKHLRQTLSSWVPEETLDFTTVLPRVISLYIFSYLDPRSLCRCAQVSWHWKNLAELDQLWMPKCLKLGWCITFTPTPFEQGVWKRQYIETVQELHISRPKVPVKEEFIVPDVKVIGSETEGSLPLTGHRDLLGLQGRSKNGNDLGKSAKGLPPWRDSDRHPTDTIRFNYLDNLHPGEHARKALLKTRQEDTIKAPSHSTYKLRKAKSLMFLSLDLSTAGKPSHNRPKWAARNLEALPADKDSIKRISQTSQWNAGIRPGPVRPPVPRLSKEGFRASQRSHRSPPTVTLFEGQP	soluble
MSLEPKYQRILIKLSGEALAGEKGVGIDIPTVQAIAKEIAEVHVSGVQIALVIGGGNLWRGEPAADAGMDRVQADYTGMLGTVMNALVMADSLQHYGVDTRVQTAIPMQNVAEPYIRGRALRHLEKNRIVVFGAGIGSPYFSTDTTAALRAAEIEADAILMAKNGVDGVYNADPKKDANAVKFDELTHGEVIKRGLKIMDATASTLSMDNDIDLVVFNMNEAGNIQRVVFGEHIGTTVSNKVCDEGHHHHHH	soluble
MGSDKIHHHHHHAAGSSSSSGSSSPSATLTPKDSQATTVFTTTNPSLTLSKVPNIDFGSNATPNGSTDLSVQAAKVDSDLEVANDGIASGWNVQVMNSAFTDSATNNSLYGAKLSFAAAGVAPANADNASPKPAMSAVSLSGDGQNQLVLSAPVKGGLGIWDTEYALSDFKLSVPAGQLPGSYVSNLTWQLSNAPQ	not soluble
MGSDKIHHHHHHMTGQNPAPDEIVIDTGNPHPARMYDWFLGGKDNYPVDEEMGRQLLALDPRVPVMAKVNRAFMHRATRWLAMNGVRQFLDIGTGIPTEPNLHQIAQQVAPESRVVYCDNDPIVLAHAAALLRSTPEGVTEYVQADVRDPDTIVEQAGKVLDFSKPVALSLVALLHFVSDEDGAYELVDRLLAEVPSGSYLMLSHATADFTPKKSEEAGELYKARSLTLALRSRDEVARFFRDLELVEPGVEVPDKWRPELGEPVPGQDDEPIPGYAAVGRKP	not soluble
MSEYRVNHEPVFMLASSPWRESSLWVEAFSRRYGRVALLARSARKRQSELRGVLVPFVPVSVSWYGSQELKTLHRAEWVGGWRQPQGRALFGGLYVNELVLKLTAREDPVPELYDALAEVMEAVCCKAAYIDDLRRFEWRLLNLLGVAPDLNRDGDGGTIAAGGTYLVRPETAVFPVGKGFAVPPHAAGVVAPGQSLIDLREGSFRTAESLQQALKITRLFIRHLLPEGLKSRQVLEQIRQFDRKETARETVPTSDGTASNAV	not soluble
MGSDKIHHHHHHMYLLDSTIAKKIVSRTMKIIGHNINVMNGQGVILGSGDPKRIGSTHEGALLAIAQNRNVELSDEVASGLHGVKPGINLPLHYQGQIIGVIGITGAPDELAHYGELLKMTAEMIVEQANQQDKLQWENRQREEFILQLIKANTDDEQLQRWAKQLDIDINLPRVAAIIEISEKLSAPIHKTASLINAAASESSVDERNPRVSETLKQVLHLLQNPDRGNLIAMTSMSQLVILKPAFLDGKQWDPELENQRIDKLLQRLPAQMGLHFKIALGHFFPEKGGIARSYQTAQETLNLGKQLNPEGTKYLFEDYSLQVLLSGLKHDWRGQALASPYQQLTQADKNGQLRKTLAAYITHFGDAQQCANALFIHRNTLRYRLDKIQQLTQTDIQSLHGLLSLYLGQLLDTSANPR	not soluble
MGSDKIHHHHHHMNIKEKIAVQLYSVRKEMERDLEGTLRKMHEIGFRYVQLDGMRGNDPSEVRRLLQKYELKVIGMHIKHDRFMNDLDGIIEEAYFFDCKTVFDKYIEEEDQTTAGYTATKAALINAAEKLHPLGFRIGLHNPEYDFNECIHGRRVMDYITDPVDGICIYAEPDTYWIRAAGHDETEFIKRYSGRAPIVHMKDFLSGFELEDMDNNLVEIGQGEVDFRAIIEWGEANGVEYYCIEQDKSKRAMFETLEASYQYLLQL	not soluble
MDDLASQSFPEPERAIMKATYQVLCEYGYADLTIQQIADEYGKTTTAVHYHCDTKNKLLTAFLDYLLEELADSVHNIRTTNPENRLKFLLDELLVKSKNEPVLSIALLEMQSQTPYKEPFRERFKQMAVVNRQTELDFTVSETA	not soluble
MKLLQRGVALALLTTFTLASETALAYEQDKTYKITVLHTNDHHGHFWRNEYGEYGLAAQKTLVDGIRKEVAAEGGSVLLLSGGDINTGVPESDLQDAEPDFRGMNLVGYDAMAIGNHEFDNPLTVLRQQEKWAKFPLLSANIYQKSTGERLFKPWALFKRQDLKIAVIGLTTDDTAKIGNPEYFTDIEFRKPADEAKLVIQELQQTEKPDIIIAATHMGHYDNGEHGSNAPGDVEMARALPAGSLAMIVGGHSQDPVCMAAENKKQVDYVPGTPCKPDQQNGIWIVQAHEWGKYVGRADFEFRNGEMKMVNYQLIPVNLKKKVTWEDGKSERVLYTPEIAENQQMISLLSPFQNKGKAQLEVKIGETNGRLEGDRDKVRFVQTNMGRLILAAQMDRTGADFAVMSGGGIRDSIEAGDISYKNVLKVQPFGNVVVYADMTGKEVIDYLTAVAQMKPDSGAYPQFANVSFVAKDGKLNDLKIKGEPVDPAKTYRMATLNFNATGGDGYPRLDNKPGYVNTGFIDAEVLKAYIQKSSPLDVSVYEPKGEVSWQ	soluble
